Measured values: patent US20060134737A1 (VLAAMS INTERUNIVERSITAIR INSTITUUT VOOR BIOTECHNOLOGIE VZW, published 2006)

Target: T1, cMyc-tagged Smurf2 (C716G), ligase inactive point mutant (UniProt Q9HAU4 1-748, limits assumed)
T1 construct: whole, on cells; Expressed from pCAGGS in HEK293T cells; co-immunoprecipitation from lysates; also called cMyc-Smurf2 (C716G); c-myc-Smurf2(C716G); not shown: cMyc tag
Test: co-immunoprecipitation of TNF-R2 with utr-1 from HEK293T lysates without cotransfected TRAF2, anti-cMyc Western blot

T1 sequence (Q9HAU4 whole entry C716G): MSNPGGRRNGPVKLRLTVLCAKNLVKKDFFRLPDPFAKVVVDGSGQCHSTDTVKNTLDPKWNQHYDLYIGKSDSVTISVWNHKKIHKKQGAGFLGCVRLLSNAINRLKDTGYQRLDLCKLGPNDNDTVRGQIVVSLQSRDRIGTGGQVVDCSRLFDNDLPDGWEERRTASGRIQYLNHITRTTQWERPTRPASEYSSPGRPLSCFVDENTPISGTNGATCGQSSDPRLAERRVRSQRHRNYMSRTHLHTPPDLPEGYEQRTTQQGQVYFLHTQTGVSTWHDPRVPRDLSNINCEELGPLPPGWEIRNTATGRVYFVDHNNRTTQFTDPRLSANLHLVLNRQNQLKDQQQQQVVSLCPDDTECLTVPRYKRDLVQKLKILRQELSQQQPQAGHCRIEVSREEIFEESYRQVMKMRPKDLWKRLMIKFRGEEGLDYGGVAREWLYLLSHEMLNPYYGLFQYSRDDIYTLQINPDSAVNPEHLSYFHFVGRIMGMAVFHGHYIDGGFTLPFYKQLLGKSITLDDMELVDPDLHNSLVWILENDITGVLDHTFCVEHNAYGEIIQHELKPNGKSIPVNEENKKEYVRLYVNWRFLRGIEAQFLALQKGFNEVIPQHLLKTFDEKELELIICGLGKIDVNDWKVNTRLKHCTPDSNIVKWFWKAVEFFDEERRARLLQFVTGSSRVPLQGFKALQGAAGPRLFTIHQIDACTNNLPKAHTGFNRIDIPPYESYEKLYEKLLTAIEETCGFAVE

binding result: no binding
B1: TNF receptor 2 (TNF-R2) wild type, pcDNAI-hTNF-R2 (receptor, UniProt P20333 23-461, looked up)
chain: LPAQVAFTPYAPEPGSTCRLREYYDQTAQMCCSKCSPGQHAKVFCTKTSDTVCDSCEDSTYTQLWNWVPECLSCGSRCSSDQVETQACTREQNRICTCRPGWYCALSKQEGCRLCAPLRKCRPGFGVARPGTETSDVVCKPCAPGTFSNTTSSTDICRPHQICNVVAIPGNASMDAVCTSTSPTRSMAPGAVHLPQPVSTRSQHTQPTPEPSTAPSTSFLLPMGPSPPAEGSTGDFALPVGLIVGVTALGLLIIGVVNCVIMTQVKKKPLCLQREAKVPHLPADKARGTQGPEQQHLLITAPSSSSSSLESSASALDRRAPTRNQPQAPGVEASGAGEARASTGSSDSSPGGHGTQVNVTCIVNVCSSSDHSSQCSSQASSTMGDTDSSPSESPKDEQVPFSKEECAFRSQLETPETLLGSTEEKPLPLGVPDAGMKPS
notes: also called TNF-R2 WT
